Target: hemagglutinin (HA) of A/California/4/09 (H1N1) on pseudotyped lentivirus (Influenza virus A/California/04/2009 (H1N1)) (UniProt P26140)
Assay: cell-based or functional assay

| Substance | Neutralization IC50, lentivirus pseudotype neutralization assay |
| --- | --- |
| monoclonal antibody 441D6 | 0.16 µg/mL |
| monoclonal antibody CH65 (anti-receptor binding site of HA) | 6.25 µg/mL |
| monoclonal antibody FI6v3 (anti-HA stem region) | 0.13 µg/mL |

— patent US20220054419A1
